Substitutions are numbered along the chain they refer to.
B1: hu CD45 HC2 + LC1 (antibody, V domains shown)
VH: EVQLLESGGGLVQPGGSLRLSCAASGFDFSRYWMSWVRQAPGKGLEWVSEINPTSSTINYADSVKGRFTISRDNSKNTLYLQMNSLRAEDTAVYYCARGNYYRYGDAMDYWGQGTMVTVSS
VL: DIVMTQSPDSLAVSLGERATINCKSSKSVSTSGYSYLHWYQQKPGQPPKLLIYLASNLESGVPDRFSGSGSGTDFTLTISSLQAEDVAVYYCQHSRELPFTFGQGTKLEIK
B2: hu CD45 HC2 + LC3 (antibody, V domains shown)
VH: B1 VH
VL: EIVLTQSPATLSLSPGERATLSCRASKSVSTSGYSYLHWYQQKPGQAPRLLIYLASNLATGIPARFSGSGSGTDFTLTISSLEPEDFAVYYCQHSRELPFTFGQGTKLEIK
B3: hu CD45 HC3 + LC4 (antibody, V domains shown)
VH: B1 VH with L5V, S49A, Y60F, A61V, S75A, T78S
VL: DIQMTQSPSSLSASVGDRVTITCRASKSVSTSGYSYLHWYQQKPGKAPKLLIYLASNLQSGVPSRFSGSGSGTDFTLTISSLQPEDFATYYCQHSRELPFTFGQGTKLEIK
B4: hu CD45 HC2 + LC4 (antibody, V domains shown)
VH: B1 VH
VL: B3 VL
B5: hu CD45 HC3 + LC1 (antibody, V domains shown)
VH: B1 VH with L5V, S49A, Y60F, A61V, S75A, T78S
VL: B1 VL
B6: hu CD45 HC4 + LC1 (antibody, V domains shown)
VH: B1 VH with L5V, Q13K, S75A, T78S
VL: B1 VL
B7: hu CD45 HC4 + LC4 (antibody, V domains shown)
VH: B1 VH with L5V, Q13K, S75A, T78S
VL: B3 VL
B8: hu CD45 HC4 + LC3 (antibody, V domains shown)
VH: B1 VH with L5V, Q13K, S75A, T78S
VL: B2 VL

Target: rhCD45 His tag (human) (UniProt P08575)
Experiment: BLI (Octet HTX), compared with the parental antibody

Sequence of UniProt P08575 (P08575 26-577): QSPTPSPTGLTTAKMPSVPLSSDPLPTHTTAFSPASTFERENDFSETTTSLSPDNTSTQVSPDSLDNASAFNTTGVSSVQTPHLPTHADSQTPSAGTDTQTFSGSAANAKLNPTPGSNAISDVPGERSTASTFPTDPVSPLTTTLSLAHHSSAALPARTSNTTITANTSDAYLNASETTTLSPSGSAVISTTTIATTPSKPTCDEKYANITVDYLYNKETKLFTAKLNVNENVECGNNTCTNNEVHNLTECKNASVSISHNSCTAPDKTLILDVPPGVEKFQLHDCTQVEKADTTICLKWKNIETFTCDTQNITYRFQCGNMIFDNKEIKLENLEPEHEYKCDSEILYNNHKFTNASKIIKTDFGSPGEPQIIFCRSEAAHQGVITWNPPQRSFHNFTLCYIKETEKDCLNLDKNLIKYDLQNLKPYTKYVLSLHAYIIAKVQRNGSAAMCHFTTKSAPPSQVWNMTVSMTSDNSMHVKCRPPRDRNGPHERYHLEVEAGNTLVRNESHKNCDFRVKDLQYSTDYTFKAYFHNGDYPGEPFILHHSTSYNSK

| Binder | fold change in KD relative to the parental antibody [fold] |
| --- | --- |
| B1 | < 10 |
| B2 | < 10 |
| B3 | < 10 |
| B4 | < 10 |
| B5 | < 10 |
| B6 | < 10 |
| B7 | < 10 |
| B8 | < 10 |
